According to patent US20210340516A1, “COMPOSITIONS CONTAINING ARGINASE 1 FOR THE TREATMENT OF NEUROVASCULAR AND RETINAL VASCULAR DISORDERS” (Augusta University Research Institute, Inc., priority 2020, published 2021):

Columns and labels:
[1] = human, in vivo; cited from earlier work
[2] = Retinal ischemia-reperfusion (IR) injury: PEG-A1 penetration of the blood-retina barrier (anti-PEG Western blot, flat-mount immunolabeling); type: in vivo, mouse
Procedure: Mouse retinal ischemia-reperfusion (IR) injury and traumatic optic neuropathy (TON) models: All experiments were performed in accordance with the ARVO Statement for the Use of Animals in Ophthalmic and Vision Research and were approved by the institutional animal care and use committee (Animal Welfare Assurance no. D16-00197). Wild-type (WT) C57BL/6J mice (10-12 weeks old) were anesthetized using ketamine/xylazine mixture then subjected to retinal ischemia-reperfusion (IR) injury or optic nerve crush (ONC) to model traumatic optic neuropathy (TON) as described in Shosha, et al., Cell death & disease, 7:e2483-e (2016) and Xu, et al., Frontiers in Neuroscience, 12:970 (2018). Mice were sacrificed at 24 hours or 7 days after by deep anesthesia followed by trans-cardial perfusion with PBS or thoracotomy and eyeballs were collected and fixed in 4% PFA for immunolabeling or retinas were extracted without fixation and homogenized in Radioimmunoprecipitation Assay (RIPA) lysis buffer for Western blotting.
Western blotting: Western blotting on retina or brain was conducted as described in Fouda, A Y, et al., Cell death & Disease, 9:1001 (2018). Membranes were probed with anti-PEG (RevMAb Biosciences, 1:1000) and anti-albumin (Bethyl Laboratories, 1:5000). Uncropped blots are included in FIG. 22.
Fluorescent immunolabeling: Retinal flat-mounts were permeabilized and immunolabeled with anti-PEG antibody (RevMAb Biosciences, 1:400) and co-stained with Alex594-labeled Griffonia simplicifolia isolectin B4 (1:200; Invitrogen) as described in Shosha, et al., Cell death & disease, 7:e2483-e (2016).
Mice were deeply anesthetized and sacrificed 24 hours later by trans-cardial perfusion with PBS (FIG. 16A). […] These mice were sacrificed at day 7 without trans-cardial perfusion and retina flat-mounts were immunolabeled to show PEG distribution within the retina (FIG. 16D).
PEG-A1 treatment in acute retinal and brain injury mouse models: A pharmaceutical grade of PEG-A1 was provided as a kind gift from Bio-Cancer Treatment International Limited (BCT, Hong Kong). […] Methoxy polyethylene glycol propionic acid (MW 5,000—Sigma, Catalog number 88908-1G-F) was used as vehicle control.

[3] = test system: C57BL/6J mice subjected to middle cerebral artery occlusion (MCAO); assay: MCAO stroke model: infarct size (TTC) and Bederson score; type: in vivo, mouse; conditions: 60 minutes MCAO, 24 hours
Procedure: MCAO model: C57BL/6J mice (12-16 week-old male, 25-30 g) were subjected to middle cerebral artery occlusion (MCAO) using the intraluminal filament technique (Docol 602145) for 60-minutes followed by reperfusion as described in Eldahshan, et al., American Journal of Physiology Heart and Circulatory Physiology, 316:H1192-h201 (2019). […] A heating pad was used to maintain body temperature at 37° C. […] Sham surgery involved all the regular surgery steps except the filament insertion. Mice were deeply anesthetized at 24 hours and sacrificed by trans-cardial perfusion with PBS then brains were collected and sectioned for triphenyl tetrazolium chloride (TTC) staining or homogenized in RIPA lysis buffer for western blotting. […]
The stroke experiment involved behavioral scoring and manual quantification of the infarct size, and was conducted in a blinded fashion following the STAIR criteria. […]
Infarct size analysis: Brain infarct size was determined based on TTC staining of brain sections as described in Eldahshan, et al., American Journal of Physiology Heart and Circulatory Physiology, 316:H1192-h201 (2019). Images of TTC-stained sections were analyzed in a blinded fashion using ImageJ software [National Institutes of Health (NIH)], and the infarct size was calculated with edema correction using the following formula: 100×[nonstroked−(stroked−infarct)]/nonstroked. […]

[4] = 25 mg/kg i.p. at 3 hours after reperfusion, 24 hours, perfused
[5] = 25 mg/kg i.p. at 3 hours and day 4, day 7, no perfusion

B1: PEG-A1: recombinant human arginase (rhArg) covalently attached to methoxy polyethylene glycol (mPEG-SPA; MW 5,000) via succinamide propionic acid (SPA) linker (protein, UniProt P05089 1-322, looked up)
Arginase-1: MSAKSRTIGIIGAPFSKGQPRGGVEEGPTVLRKAGLLEKLKEQECDVKDYGDLPFADIPNDSPFQIVKNPRSVGKASEQLAGKVAEVKKNGRISLVLGGDHSLAIGSISGHARVHPDLGVIWVDAHTDINTPLTTTSGNLHGQPVSFLLKELKGKIPDVPGFSWVTPCISAKDIVYIGLRDVDPGEHYILKTLGIKYFSMTEVDRLGIGKVMEETLSYLLGRKKRPIHLSFDVDGLDPSFTPATGTPVVGGLTYREGLYITEEIYKTGLLSGLDIMEVNPSLGKTPEEVTRTVNTAVAITLACFGLAREGNHKPIDYLNPPK
modifications: mPEG-SPA 5 kDa conjugate
notes: recombinant human arginase (rhArg) covalently attached to methoxy polyethylene glycol (mPEG-SPA; MW 5,000) via succinamide propionic acid (SPA) linker
safety and tolerability in humans [1]: safe and well-tolerated
anti-PEG immunoreactivity in liver homogenates (Western blot) [2, 4]: strong band
anti-PEG reactivity in retina homogenates, IR-injured retinas [2, 4]: strong anti-PEG reactivity
anti-PEG reactivity in retina homogenates, sham eyes [2, 4]: faint anti-PEG reactive bands
PEG distribution within the retina (flat-mount immunolabeling), IR-injured retinas [2, 5]: more diffuse signal
PEG distribution within the retina (flat-mount immunolabeling), sham retinas [2, 5]: restricted to a vessel-like network
Bederson score [3]: trend towards improved Bederson score that did not reach statistical significance
infarct size (TTC, percent of contralesional hemisphere) ([3]; vehicle 41%): 34%
